Data reported in patent US7795009.

Tested on: prothrombin

Factor Xa was tested, and the “sensitized acceptor emission of the thrombin beacon as a function of time” value was “This conversion resulted in a time-dependent increase of beacon signal”.
